± gives the half width of the 95% confidence interval.
Columns and labels:
[1] = folding stability dG unfold from trypsin proteolysis; higher = more stable
Procedure, shortened: (§1)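 Unfolding free energy was derived, per protease or combined, by relating Bayesian-fitted K50 values from sequencing counts to a sequence-predicted unfolded-state K50 and a shared folded-state K50. The underlying digests exposed cysteine-free mini-proteins under 80 residues, in a PA-tagged cDNA display construct, to trypsin and chymotrypsin at 11 threefold-diluted concentrations and to a no-protease condition. A filter kept only designs with AlphaFold2 dimer inter-PAE above 15.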

[2] = folding stability dG unfold from chymotrypsin proteolysis; higher = more stable
Procedure, shortened: as §1

[3] = folding stability dG unfold (combined trypsin and chymotrypsin); higher = more stable
Procedure, shortened: as §1

Sequence | folding stability dG unfold [1] [kcal/mol] | folding stability dG unfold [2] [kcal/mol] | folding stability dG unfold [3] [kcal/mol]
SPLTAEQIKKLLRELFPNAKIVSIEYDKENKTVTITFEDGLKIEVTVTEDGRVIIRITLPGKEITIEIEVSA [r9_304_TrROS_Hall] | 4.22 ± 0.3 | 4.03 ± 0.23 | 4.44 ± 0.22
SPLVLNPEGRTLTITLTVTVDPDVDRQVVPVLVVDEGAPRTFTFEVPKGLAGPVTFTLEIDLPPGAYVEVSA [r9_973_TrMRF] | 2.05 ± 0.028 | 2.29 ± 0.066 | 2.18 ± 0.049
SPNLKPVEFPIKIPGYKIRRVSIWKSPDGPVEIFVRFPDGWYYEFEIPPNGDIQPMKITEAVPPDEDKKNSA [r9_1075_TrROS] | 1.57 ± 0.086 | 1.14 ± 0.17 | 1.38 ± 0.16
SPNMQPVEMEFKIKVPGKPVDIKIEMWRMPDGQTRMDIRYPDGRSIMFNPSNGSIKIYDPKDGKPLAEISSA [r9_970_TrROS] | 1.1 ± 0.057 | 1.47 ± 0.073 | 1.38 ± 0.16
SPPVRARIRVERLPDGSVRVELEVEFPDGVRVRIETLEAPPETGVVRVRARFFPPDGSSVEFEFTFPLLRSA [r9_1179_TrMRF] | 3.74 ± 0.086 | 4.96 ± 0.12 | 4.52 ± 0.11
SPQNLVRIAEIKVELKLDGKKYIITIEVYRPPDSDEVIVRVKVIDPSSDKSSPELEKIAKELEKKIEEELKS [r1_229_JUSTAS] | 2.53 ± 0.19 | 4.09 ± 0.1 | 3.54 ± 0.18
SPRIKIDIPFFNANGHPQEVEIEYSPTDGMLMIKFPRNGYYIMIQIKRIEWEDGKLEIELDIFIMPPGDFSA [r9_587_TrROS] | 3.01 ± 0.18 | 4.55 ± 0.22 | 4.17 ± 0.43
SPSTTIPQTITLDTKLPNGKPATPEEVKAIAEEIVKKLEKEKGVKISINVKVTPVDSSGKYKLDITITIIKS [r1_231_JUSTAS] | 2.14 ± 0.047 | 2.81 ± 0.072 | 2.59 ± 0.11
SPVEIVSEETDPNGGTKYKTYSNPQADVRIEVAYPSSGITITVHFPDSTSTKSFSSEADAEKEVVRLAASSA [r9_527_JUSTAS] | 0.339 ± 0.086 | 0.944 ± 0.15 | 0.711 ± 0.11
SPVLEKIRKLVEELLKKLGIEVKEGETVEIEITLPDGSTIRITFDAKTKKITVEITIDGKKVTLTLEIKPSA [r9_426_TrROS_Hall] | 4.2 ± 0.3 | 5.68 ± 0.72 | > 6
SPVSLSFTTAPSGLPTVTSASQPADGSLLLTLTEPATGATTTLTLPPGLPPGVERTVTLPGPDGATTLTVGS [r1_43_JUSTAS] | -0.678 ± 0.19 | 0.723 ± 0.11 | 0.364 ± 0.073
SPVVVTTSPGPDGGARVTIYFPKTGKPIEFDITDPDLVEESTSDPNTRVDIPEEVLRSLAPDLFTGFTTESA [r9_390_TrMRF] | 0.497 ± 0.046 | 0.241 ± 0.1 | 0.362 ± 0.065
SPWYVRIKLEYPGKEKRIMIPPDESISQIKDNIRDFAREMGLEEPPLDDFKIEDVEVFPDENGMVSIEIKSA [r9_1053_TrROS] | 0.606 ± 0.32 | 1.15 ± 0.21 | 0.819 ± 0.41
SPYTVDSVSEDPSRNSTTVLNFPDGTTVTVTYDPSNPSLATVTVRPADGTTETTTVPLDEPFVVNLTVNPSA [r9_875_JUSTAS] | 0.922 ± 0.074 | 0.94 ± 0.17 | 1.02 ± 0.21
SQWVIKIKFPNPDGEPVKIIFPVEEIQEIFKEEHGEPSSPQEFADRLAKHHPNVDVEIMPLDDMPPEQLNSA [r9_1085_TrROS] | -0.998 ± 0.66 | 0.42 ± 0.21 | -0.0736 ± 0.34
SRDLLKELAEKFPNFEPKGVQEEPTDNGGVKLQVIARHPKNGRYYKIEITVPPDGKIEDIEIEPVPLDDLSA [r9_274_TrROS] | 2.3 ± 0.045 | 2.823 ± 0.021 | 2.61 ± 0.09
SRRLITIEITVTLPGNPEVTLSKTLKLPTEDVEEAIEKAKKEFKEEFGIPEDVPVKIEVTVSTSDGDPSLQS [r1_149_JUSTAS] | 2.53 ± 0.18 | 1.56 ± 0.049 | 1.96 ± 0.068
SRTIENPDNGIKITVDRVPGGRYRVHIFNPGGKPIHEREIPDMPIPPGDTREIKIPIKGLPPGMYLMLEPWS [r1_263_TrROS] | 0.502 ± 0.16 | 0.842 ± 0.13 | 0.719 ± 0.13
SSAEEIVEKLKKELEEKLPEDYKITSVTLTKSPDGIVTAPMTIKSSDGVESTVTVTYDLKTGKITIEVNSSA [r9_219_JUSTAS] | 3.42 ± 0.25 | 4.84 ± 0.12 | 4.73 ± 0.22
SSEELRELILNEAAKLGVKIKEIKVKEDPSTNTVSIEITVPDGKVIKLSFTRTSDGGYSYDINELKAGLESA [r9_85_JUSTAS] | 5.35 ± 0.35 | 6.2 ± 0.14 | > 6
SSISIPGLTEEKAAELAKRLRELFPGAEVKTTTFPEKKVVVVDVTLPVVDADGKLVGTVKLRLVLVVEDDSA [r9_378_TrMRF] | 4.6 ± 0.19 | 4.55 ± 0.21 | 4.84 ± 0.34

Sequence | folding stability dG unfold [1] [kcal/mol] | folding stability dG unfold [2] [kcal/mol] | folding stability dG unfold [3] [kcal/mol]
SSISPSSTLTFSKPFPDDDINAVKEFAEKLAKEIGPDVSVVKIEKDPNNPNKVTITISVPGTSITVNFSNSA [r9_1079_JUSTAS] | 1.09 ± 0.054 | 0.664 ± 0.26 | 1.01 ± 0.14
SSKIKEFIIKLPEKNKYYKIIVTPTEIYIYDENGKKIKKFSIPKNKKIKKIDIKIDKKKNKLIIKVYLEKSA [r9_939_TrMRF] | 4.14 ± 0.23 | 4.54 ± 0.098 | 4.42 ± 0.21
SSKTVTVTTEEEEKEAREKIKELVKPGKSVDVEITMTGPDGTRTRRTYKITTNPDGTITIEETETPLPPPSA [r9_1023_JUSTAS] | 1.5 ± 0.034 | 2.43 ± 0.057 | 2.17 ± 0.21
SSLEIPPEVLAEIKKAALEGDDEKVKELLKELGFTKVEIKYEKLDGKVKLTIKVEHPEGPATITFSDELLSA [r9_783_JUSTAS] | 3.36 ± 0.18 | 4.15 ± 0.15 | 4.23 ± 0.28
SSPEEDLEEIEITVTNPNDPRPSFVKVTRSPEGYEATFTLPDGKTVKIPPELGLEEIKKLPSSFTITILPSA [r9_781_JUSTAS] | 0.0376 ± 0.059 | 0.83 ± 0.087 | 0.561 ± 0.064
SSPMTVEELLERHPNLLVVRLPDGTVYLFDPEKETLYTVTPGTGEVTVTPLSLEELLALLPAAGHEVLPLSA [r9_721_JUSTAS] | 1.74 ± 0.1 | 2.14 ± 0.092 | 1.99 ± 0.11
SSSAEIRAYRFPDFWLVEIDLRDGDKLVGTAVFPNDGSVSLEEVAEAFRAAHPDFDVEISAIEPVPPPPPSA [r9_364_TrMRF] | 1.71 ± 0.064 | 2.08 ± 0.063 | 2.01 ± 0.12
SSSGTDPLTVRVTVTLTDPSTGKETLLEYEVEVPPGTPVEVELPDVPPSASVTVEVYDPGGVRIGTRTLPSA [r9_478_JUSTAS] | 1.81 ± 0.14 | 1.78 ± 0.11 | 1.95 ± 0.4
SSSPSGLSVTSSTVTKVETDPGPGNVTTVTVTTLNNSVLIIPLPGKPLVIPTNTTVETTYTVPPDDPSPASA [r9_531_JUSTAS] | 1.31 ± 0.073 | 0.87 ± 0.11 | 1.15 ± 0.074
SSSSMKTVFDPNRPYPRTVLVTFLPDGTVVITAPGKKLSTVKVEIEPPPPLELRPRVSPNGERSPGYLRLGS [r1_496_JUSTAS] | 1.1 ± 0.18 | 1.76 ± 0.14 | 1.47 ± 0.16
SSSSTLVSSYTLTLKDEKGNEITLKVDVYKFPSGSYRVEITRPDGTVTEYEFPASEPPTEEKIKELALKKSA [r9_616_JUSTAS] | 4.47 ± 0.46 | 6.01 ± 0.13 | > 6
SSWEKLSTLTLPSTGLTVTFYYDPSTNSTAVKVTDGAGPELSEKVLSDDETFTLPDGVSIKLPKGAEPASSA [r9_340_JUSTAS] | 0.334 ± 0.021 | 1.45 ± 0.077 | 1.02 ± 0.081
SSYTVDVTFTDPSPPKPTHRTLSSIEDAIAEAKAELPPGSVATITVTYPDGSTETITIVGDGVVETKKTASA [r9_482_JUSTAS] | -0.116 ± 0.056 | 0.917 ± 0.039 | 0.561 ± 0.081
STIRITLPKEELSPELLEALAKAPGLSEEELRDRLTVEEVDGEVVITLSPEVLEELRKRNPELLEALEKASA [r9_160_TrROS_Hall] | 3.32 ± 0.093 | 1.91 ± 0.054 | 2.59 ± 0.11
STITIEVETPEELEKALVEAEKLVEKGKDVKIEIFVRNENGETLKLTFDIKQLPDGIPVLEIEVEPVPPPSA [r9_1023_TrMRF] | 1.89 ± 0.1 | 3.1 ± 0.041 | 2.74 ± 0.13
STKLLPFEEALKEAEKAIKEGKKKVNITIYTPDGKTFNLTDVEKVKEFIEKEFPGISLSELTVTVSITPPES [r1_325_JUSTAS] | 2.86 ± 0.068 | 3.53 ± 0.065 | 3.3 ± 0.067
STLEELLEAIEKLPPGAVVRITITLENGEKIELPIEMTVEELKEQLEALAAEHPGKKIEIKIEVIPKEELSA [r9_37_TrROS_Hall] | 3.66 ± 0.38 | 2.78 ± 0.28 | 3.43 ± 0.56
STLEQILDAIESMPPGWVFRIKIHHPNGEPHEHRFNMTYDDIKAQLENMIDHHPGQPIKIKIEFMPPEDFSA [r9_37_TrROS] | 2.97 ± 0.11 | 3.72 ± 0.077 | 3.38 ± 0.064
STLLEEAKAQAEAYLKAAGLELAPGDVVTLTVPYPGPLTLEITVHPGEKKLEITATDASTPTTHTLTFDESA [r9_426_JUSTAS] | 0.831 ± 0.039 | 1.16 ± 0.074 | 1.03 ± 0.079
STLPPGATRTFEFTDPATGKKITVTLTRLPDGTVRVTLTTTDPATGKTTTETFTLPGETLEALLALVEESSA [r9_618_JUSTAS] | 4.28 ± 0.22 | 4.86 ± 0.12 | 4.68 ± 0.16
STTEVEVTPLPGNSTLVTTTTTTPEFDPANGTIRYTSETTTTTITYTPGTTEPTTTTTTTTTTTTIPATTSA [r9_140_JUSTAS] | 0.639 ± 0.062 | 0.813 ± 0.12 | 0.814 ± 0.14

Reference: the supplement of paper PMC12764529
